The conditions of this series: Escherichia coli (strain K12); pH 7.2; Thermal; DSC; Sodium phosphate 1 mM; reversible: yes; whole UniProt chain shown.

B1: Tryptophan synthase alpha chain wild type, P0A877 (protein)
chain: MERYESLFAQLKERKEGAFVPFVTLGDPGIEQSLKIIDTLIEAGADALELGIPFSDPLADGPTIQNATLRAFAAGVTPAQCFEMLALIRQKHPTIPIGLLMYANLVFNKGIDEFYAQCEKVGVDSVLVADVPVEESAPFRQAALRHNVAPIFICPPNADDDLLRQIASYGRGYTYLLSRAGVTGAENRAALPLNHLVAKLKEYNAAPPLQGFGISAPDQVKAAIDAGAAGAISGSAIVKIIEQHINEPEKMLAALKVFVQPMKAATRS
Consider B1, for which the Tm was 59.5 °C.
